Measured values from article PMC9133651, “Elucidation of physico-chemical principles of high-density lipoprotein–small RNA binding interactions”.

Each binder was assayed against apolipoprotein A-I (lipid-free) (Homo sapiens, UniProt P02647 25-267) (assay: MST; Kd only in figure; MST: 100 nM AF647 oligo (90 C 2 min, cooled) mixed 1:1 with ligand in PBS, RT, 5 min; EMSA: 1 uM AF546 oligo, UV 254 nm 15 min on ice, 4-16% NativePAGE, 0.5x TBE). Details: protein: native; label: 3' Alexa Fluor 647.
Sequence of apolipoprotein A-I (lipid-free) (P02647 25-267): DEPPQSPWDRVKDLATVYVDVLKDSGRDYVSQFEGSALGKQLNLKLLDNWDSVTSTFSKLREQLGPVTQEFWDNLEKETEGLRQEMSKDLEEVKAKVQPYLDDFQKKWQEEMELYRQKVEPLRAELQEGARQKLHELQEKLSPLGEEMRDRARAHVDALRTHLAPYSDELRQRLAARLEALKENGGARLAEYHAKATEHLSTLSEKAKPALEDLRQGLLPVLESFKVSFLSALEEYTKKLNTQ
CCUGGUGGUCUAGUGGUUAGGAUUCGGCGC (ssRNA) [tDR-GluCTC-30]: binds.
UGUCAGUUUGUCAAAUACCCCA (ssRNA) [miR-223-3p]: binds.
UUUGUUCGUUCGGCUCGCGUGA (ssRNA) [miR-375-3p]: binds.
